Measurements reported in US20070020257A1.

Target: integrins on cell surface of mucosae
Assay: cell-based or functional assay

Row | Binder | Titer against PAc (intranasal RGD-DUP given together with an excess of RGDS peptide as inhibitor) (titer (maximum serum dilution)) | Titer against PAc (serum of BALB/c mice after intranasal administration of RGD-DUP) (titer (maximum serum dilution)) | Titer against PAc (intranasal YIGSR-DUP given together with an excess of YIGSR peptide as inhibitor) (titer (maximum serum dilution)) | Titer against PAc (serum of BALB/c mice after intranasal administration of YIGSR-DUP) (titer (maximum serum dilution))
1 | RGDTYEAALKQYEADLKKTYEAALKQYEADL [RGD-DUP (di unit peptide with the cell attachment motif RGD at the N-terminal region)] | 256 | 5070 | – | –
2 | YIGSRTYEAALKQYEADLKKTYEAALKQYEADL [YIGSR-DUP (di unit peptide with the cell attachment motif YIGSR at the N-terminal region)] | – | – | 235 | 1200
